The nature of this data set: melting temperature; UV melt of duplexes.

On to “AAATAAATAGCTATTTATTT+AAATAAATAGCTATTTATTT ((((((((((((((((((((+))))))))))))))))))))”, for which the melting temperature (Tm) (in general, the temperature at which the thermal transition is half complete) (sodium 0.12 M, strand 7 µM) was 47.1 °C.

Regarding “CAGTGAGACAGCAATGGTCG+CGACCATTGCTGTCTCACTG ((((((((((((((((((((+))))))))))))))))))))”, the midpoint of thermal melting (Tm) is, setting by setting: (sodium 0.07 M, strand 2 µM) 59.8 °C; (sodium 0.12 M, strand 2 µM) 63.5 °C; (sodium 0.22 M, strand 2 µM) 67 °C; (sodium 0.62 M, strand 2 µM) 71.1 °C; (sodium 1.02 M, strand 2 µM) 72.5 °C.

On to “AGATCATATATATCGAT+ATCGATATATATGATCT (((((((((((((((((+)))))))))))))))))”, for which, for the setting “sodium 0.12 M, strand 4 µM”, the Tm is 49.2 °C.

For the substance “ACTGGCGAGGATCCAGCGGTCA+TGACCGCTGGATCCTCGCCAGT ((((((((((((((((((((((+))))))))))))))))))))))”, the Tm (sodium 0.12 M, strand 4.1 µM) is 71.8 °C.

As to “CGTACTAGCGTTGGTCATGG+CCATGACCAACGCTAGTACG ((((((((((((((((((((+))))))))))))))))))))”, the melting temperature (Tm) reads like this: (sodium 0.07 M, strand 2 µM) 59.6 °C; (sodium 0.12 M, strand 2 µM) 63.1 °C; (sodium 0.22 M, strand 2 µM) 66.6 °C; (sodium 0.62 M, strand 2 µM) 70.5 °C; (sodium 1.02 M, strand 2 µM) 71.1 °C.

On to “ATACGCGAGGATCCAGCGCAAT+ATTGCGCTGGATCCTCGCGTAT ((((((((((((((((((((((+))))))))))))))))))))))”, for which the melting temperature (Tm) (sodium 0.12 M, strand 4 µM) is 71.1 °C.

Consider “GCGGATTAGGATCCATATCGCG+CGCGATATGGATCCTAATCCGC ((((((((((((((((((((((+))))))))))))))))))))))”, for which the melting temperature (Tm) (sodium 0.12 M, strand 4 µM) stood at 65.4 °C.

As for “GACCTGACGTGGACCGCTCCTGGGCGTGGT+ACCACGCCCAGGAGCGGTCCACGTCAGGTC ((((((((((((((((((((((((((((((+))))))))))))))))))))))))))))))”, the Tm was 74.4 °C (sodium 0.07 M, strand 2 µM); 78.4 °C (sodium 0.12 M, strand 2 µM); 81.5 °C (sodium 0.22 M, strand 2 µM); 85.2 °C (sodium 0.62 M, strand 2 µM); 86.4 °C (sodium 1.02 M, strand 2 µM).

For “TAGTATATCGCAGCATCATACAGGC+GCCTGTATGATGCTGCGATATACTA (((((((((((((((((((((((((+)))))))))))))))))))))))))”, the melting temperature (Tm) is 61.2 °C (sodium 0.07 M, strand 2 µM); 64.7 °C (sodium 0.12 M, strand 2 µM); 69.1 °C (sodium 0.22 M, strand 2 µM); 72.8 °C (sodium 0.62 M, strand 2 µM); 75 °C (sodium 1.02 M, strand 2 µM).

Turning to “TAACCATACTGAATACCTTTTGACG+CGTCAAAAGGTATTCAGTATGGTTA (((((((((((((((((((((((((+)))))))))))))))))))))))))”, the melting temperature (Tm) runs as follows: (sodium 0.07 M, strand 2 µM) 56.5 °C; (sodium 0.12 M, strand 2 µM) 60.2 °C; (sodium 0.22 M, strand 2 µM) 64.3 °C; (sodium 0.62 M, strand 2 µM) 68.9 °C; (sodium 1.02 M, strand 2 µM) 71.3 °C.

With “TCAGTAGGCGTGACGCAGAGCTGGCGATGG+CCATCGCCAGCTCTGCGTCACGCCTACTGA ((((((((((((((((((((((((((((((+))))))))))))))))))))))))))))))”, the Tm was determined as 72.2 °C (sodium 0.07 M, strand 2 µM); 75.7 °C (sodium 0.12 M, strand 2 µM); 79.3 °C (sodium 0.22 M, strand 2 µM); 83.3 °C (sodium 0.62 M, strand 2 µM); 84.6 °C (sodium 1.02 M, strand 2 µM).

As for “AAAGGTGTCGCGGAGAGTCGTGCTG+CAGCACGACTCTCCGCGACACCTTT (((((((((((((((((((((((((+)))))))))))))))))))))))))”, the melting temperature (Tm) was 69.6 °C (sodium 0.07 M, strand 2 µM); 73.6 °C (sodium 0.12 M, strand 2 µM); 77.4 °C (sodium 0.22 M, strand 2 µM); 81.2 °C (sodium 0.62 M, strand 2 µM); 82.4 °C (sodium 1.02 M, strand 2 µM).

Turning to “CGGAATCCATGTTACTTCGGCTATC+GATAGCCGAAGTAACATGGATTCCG (((((((((((((((((((((((((+)))))))))))))))))))))))))”, the Tm amounted to 60.9 °C (sodium 0.07 M, strand 2 µM); 64.7 °C (sodium 0.12 M, strand 2 µM); 68.7 °C (sodium 0.22 M, strand 2 µM); 73.3 °C (sodium 0.62 M, strand 2 µM); 74.8 °C (sodium 1.02 M, strand 2 µM).

Regarding “CCGTGCGGTGTGTACGTTTTATTCATCATA+TATGATGAATAAAACGTACACACCGCACGG ((((((((((((((((((((((((((((((+))))))))))))))))))))))))))))))”, the Tm runs as follows: (sodium 0.07 M, strand 2 µM) 63.9 °C; (sodium 0.12 M, strand 2 µM) 68.3 °C; (sodium 0.22 M, strand 2 µM) 71.8 °C; (sodium 0.62 M, strand 2 µM) 76.5 °C; (sodium 1.02 M, strand 2 µM) 77.6 °C.

In the case of “CTGGTCTGGATCTGAGAACTTCAGG+CCTGAAGTTCTCAGATCCAGACCAG (((((((((((((((((((((((((+)))))))))))))))))))))))))”, the Tm runs as follows: (sodium 0.07 M, strand 2 µM) 62.1 °C; (sodium 0.12 M, strand 2 µM) 65.8 °C; (sodium 0.22 M, strand 2 µM) 69.6 °C; (sodium 0.62 M, strand 2 µM) 74.2 °C; (sodium 1.02 M, strand 2 µM) 75.6 °C.

As to “AATATATAGCTATCGAT+ATCGATAGCTATATATT (((((((((((((((((+)))))))))))))))))”, where the note is “sodium 0.12 M, strand 4 µM”, the midpoint of thermal melting (Tm) is 49.7 °C.

For “CAGCCTCGTTCGCACAGCCC+GGGCTGTGCGAACGAGGCTG ((((((((((((((((((((+))))))))))))))))))))”, the Tm by setting is: (sodium 0.07 M, strand 2 µM) 67.2 °C; (sodium 0.12 M, strand 2 µM) 70.7 °C; (sodium 0.22 M, strand 2 µM) 74 °C; (sodium 0.62 M, strand 2 µM) 77.7 °C; (sodium 1.02 M, strand 2 µM) 78.1 °C.

With “ATAAATTAGGATCCATATAAAT+ATTTATATGGATCCTAATTTAT ((((((((((((((((((((((+))))))))))))))))))))))”, for the setting “sodium 0.12 M, strand 5.8 µM”, the midpoint of thermal melting (Tm) was 47.7 °C.

Take “GATGACGCTAGCTAGCTAGGAC+GTCCTAGCTAGCTAGCGTCATC ((((((((((((((((((((((+))))))))))))))))))))))”: under “sodium 0.15 M, strand 1.1 µM”, the Tm was 64 °C.

As for “AATATGAATTCTAATA+TATTAGAATTCATATT ((((((((((((((((+))))))))))))))))”, where the note is “sodium 0.12 M, strand 6 µM”, the midpoint of thermal melting (Tm) stood at 41.4 °C.

As for “CTCGTACCTTTCCGGTCC+GGACCGGAAAGGTACGAG ((((((((((((((((((+))))))))))))))))))”, for the setting “sodium 0.1 M, strand 4 µM”, the Tm was found to be 61.7 °C.

For the origin of these results see the array DNA melting data of Ke et al..
